Patent publication US12478674 (dated 2025)
Changes are numbered by the printed parent chain. Several values for one entry are separate records, joined by “and”; a condition that tells them apart may be missing. Equal entries are not always repeated.

B1: ipilimumab (ipi) Fab (antibody, V domains shown)
VH: QVQLVESGGGVVQPGRSLRLSCAASGFTFSSYTMHWVRQAPGKGLEWVTFISYDGNNKYYADSVKGRFTISRDNSKNTLYLQMNSLRAEDTAIYYCARTGWLGPFDYWGQGTLVTVSS
VL: not shown
B2: ipi.106 IgG1 (antibody, V domains shown)
VH: B1 VH with S31H, N56H, T99H
VL: EIVLTQSPGTLSLSPGERATLSCRASQEVGESELAWYQQKPGQAPRLLIYGAFSRATGIPDRFSGSGSGTDFTLTISRLEPEDFAVYYCQQYGSSPWTFGQGTKVEIKR
B3: ipi.105 IgG1 (antibody, V domains shown)
VH: B1 VH with S31H, N56H
VL: B2 VL
B4: ipi.100 IgG1 (antibody, V domains shown)
VH: B1 VH with S31H
VL: not shown
B5: ipi.101 IgG1 (antibody, V domains shown)
VH: B1 VH with S31H, N56H
VL: not shown
B6: ipi.64 Fab (antibody, V domains shown)
VH: B1 VH with S31H
VL: not shown
B7: ipi.64 IgG1 (antibody, V domains shown)
VH: B1 VH with S31H
VL: not shown
B8: ipilimumab IgG1 (antibody, V domains shown)
VH: B1 VH
VL: not shown

Tests used:
[1] = biological target: human CTLA-4 (human); assay: FACS, pH 7.3
[2] = biological target: human CTLA-4 (human); assay: FACS, pH 6.0
[3] = biological target: human CTLA-4 (human); assay: SPR, pH 6.0, 37C
[4] = biological target: human CTLA-4 (human); assay: SPR, pH 6.0, 37C; remark: listed apart in the source
[5] = biological target: human CTLA-4 (human); assay: SPR, pH 6.0, 37C; remark: listed apart in the source
[6] = biological target: human CTLA-4 (human); assay: SPR, pH 7.4, 37C
[7] = biological target: human CTLA-4 (human); assay: SPR, pH 7.4, 37C; remark: listed apart in the source
[8] = biological target: human CTLA-4 (human); assay: SPR, pH 7.4, 37C; remark: listed apart in the source
[9] = biological target: human CTLA-4 (human); assay: FACS, pH 6.2, bivalent
[10] = biological target: human CTLA-4 (human); assay: FACS, pH 6.7, bivalent
[11] = biological target: human CTLA-4 (human); assay: FACS, pH 7.2, bivalent

human CTLA-4 (human), sequence (chain, as listed by the source): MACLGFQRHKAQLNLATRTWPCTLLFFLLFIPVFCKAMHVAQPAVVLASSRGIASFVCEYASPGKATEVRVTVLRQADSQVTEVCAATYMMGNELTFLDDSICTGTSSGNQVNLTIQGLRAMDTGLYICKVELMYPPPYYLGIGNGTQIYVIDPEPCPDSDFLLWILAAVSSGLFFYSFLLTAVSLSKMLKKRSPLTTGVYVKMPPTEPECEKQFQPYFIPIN

| Binder | EC50 [9] [nM] | EC50 [10] [nM] | EC50 [11] [nM] | other results |
| --- | --- | --- | --- | --- |
| B1 |  |  |  | EC50 [1]: 5.4 nM; EC50 [2]: 7.1 nM; Kd [3]: 21 nM; Kd [4]: 21 nM; Kd [5]: 46 nM; Kd [6]: 47 nM; Kd [7]: 22 nM; Kd [8]: 22 nM and 14 nM |
| B2 | 3.15 | 4.37 | 11.5 |  |
| B3 | 2.6 | 3.45 | 3.94 |  |
| B4 | 2.94 | 2.85 | 2.8 |  |
| B5 | 3.52 | 4.06 | 3.81 |  |
| B6 |  |  |  | EC50 [1]: 140 nM; EC50 [2]: 3.3 nM |
| B7 | 2.93 | 2.97 | 3.1 |  |
| B8 | 2.76 | 2.35 | 1.84 |  |
